This note sets out measurements from US20110159009A1.

The experiment concerns the target mouse VEGF-A (mouse) (UniProt Q00731). The experiment is described as follows: cell-based or functional assay.

Chain of mouse VEGF-A (mouse) (Q00731 other isoform, or with tags, fused parts or gaps limits assumed): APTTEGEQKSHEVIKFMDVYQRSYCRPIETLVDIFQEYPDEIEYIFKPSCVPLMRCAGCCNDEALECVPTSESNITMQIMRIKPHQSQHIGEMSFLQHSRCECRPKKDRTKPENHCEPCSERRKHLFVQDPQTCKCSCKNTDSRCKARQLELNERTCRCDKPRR

Take Bevacizumab (BV) (antibody): the BRME proliferation (Alamar blue) was greater than 1500 nM.
